{
  "source": "IntAct's records for PubMed 23736261",
  "parents": {"B1": {"name": "Catenin beta-1 (Homo sapiens), P35222 (parent)", "chain": "MATQADLMELDMAMEPDRKAAVSHWQQQSYLDSGIHSGATTTAPSLSGKGNPEEEDVDTSQVLYEWEQGFSQSFTQEQVADIDGQYAMTRAQRVRAAMFPETLDEGMQIPSTQFDAAHPTNVQRLAEPSQMLKHAVVNLINYQDDAELATRAIPELTKLLNDEDQVVVNKAAVMVHQLSKKEASRHAIMRSPQMVSAIVRTMQNTNDVETARCTAGTLHNLSHHREGLLAIFKSGGIPALVKMLGSPVDSVLFYAITTLHNLLLHQEGAKMAVRLAGGLQKMVALLNKTNVKFLAITTDCLQILAYGNQESKLIILASGGPQALVNIMRTYTYEKLLWTTSRVLKVLSVCSSNKPAIVEAGGMQALGLHLTDPSQRLVQNCLWTLRNLSDAATKQEGMEGLLGTLVQLLGSDDINVVTCAAGILSNLTCNNYKNKMMVCQVGGIEALVRTVLRAGDREDITEPAICALRHLTSRHQEAEMAQNAVRLHYGLPVVVKLLHPPSHWPLIKATVGLIRNLALCPANHAPLREQGAIPRLVQLLVRAHQDTQRRTSMGGTQQQFVEGVRMEEIVEGCTGALHILARDVHNRIVIRGLNTIPLFVQLLYSPIENIQRVAAGVLCELAQDKEAAEAIEAEGATAPLTELLHSRNEGVATYAAAVLFRMSEDKPQDYKKRLSVELTSSLFRTEPMAWNETADLGLDIGAQGEPLGYRQDDPSYRSFHSGGYGQDALGMDPMMEHEMGGHHPGADYPVDGLPDLGHAQDLMDGLPPGDSNQLAWFDTDL"}},
  "data": [
    {"variants_of": "B1", "conditions": "with mlp3b_human MAP1LC3B", "values": [
      {"variant": "W504A;I507A", "effect of a mutation on the interaction": "disrupting interaction"}
    ]},
    {"variants_of": "B1", "conditions": "with mlp3b_human MAP1LC3B", "remark": "another data set of the same source", "values": [
      {"variant": "W504A;I507A", "effect of a mutation on the interaction": "decreasing interaction"}
    ]}
  ]
}
